Consider one substance from US20230143582A1.

The test addresses Wnt receptors on the cell surface of the HEK293 TCF9-SEAP reporter cell line. Description: cell-based or functional assay.

Consider “recombinant human Wnt3a protein (from UniProt P56704 19-352) (ligand)”, for which the ED50 in the HEK293 TCF9-Secreted Alkaline Phosphatase (SEAP) Wnt-responsive reporter assay, lot DLGC02 worked out at 0.221 µg/mL; the ED50 in the HEK293 TCF9-Secreted Alkaline Phosphatase (SEAP) Wnt-responsive reporter assay, lot RSK51 was 0.145 µg/mL; the ED50 in the HEK293 TCF9-Secreted Alkaline Phosphatase (SEAP) Wnt-responsive reporter assay, lot RSK69 is 0.191 µg/mL.
